Data set [1] deals with HeLa Kyoto. The data set can be described thus: thermal stability score vs G1/S (z-score of summed log2 fold changes over temperatures); higher = more thermally stable than in G1/S.
Data set [2] relates to HeLa Kyoto. The data set can be described thus: melting temperature (median over replicates), in situ; higher = more thermally stable.
Data set [3] concerns HeLa Kyoto. Briefly: solubility in G1/S (NP-40 vs SDS abundance) (log2 ratio); higher = more soluble. The following applies: cell cycle stage: G1/S.
In data set [4] the test system is HeLa Kyoto. The data set can be described thus: solubility change mitosis vs G1/S (difference of NP-40 vs SDS log2 ratios) (log2 ratio difference); higher = more soluble in mitosis.
Setting [5] is: cell cycle stage: early G1 (4.5 h after nocodazole release).
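For melting temperature (median over replicates), in situ in this document: HeLa Kyoto cells synchronized by double thymidine or nocodazole block, proteins quantified by TMT10plex mass spectrometry, three independent biological replicates.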
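For solubility change mitosis vs G1/S (difference of NP-40 vs SDS log2 ratios) in this document: synchronized HeLa Kyoto cells (double thymidine block for G1/S, nocodazole release for mitosis), protein amounts in NP-40 versus SDS lysates quantified by mass spectrometry, three biological replicates.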
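For solubility in G1/S (NP-40 vs SDS abundance) in this document: HeLa Kyoto cells arrested at G1/S by double thymidine block, proteins quantified by TMT10plex mass spectrometry in mild NP-40 versus SDS extracts, three biological replicates.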
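For thermal stability score vs G1/S (z-score of summed log2 fold changes over temperatures) in this document: synchronized HeLa Kyoto cells, proteins quantified by TMT10plex mass spectrometry, three biological replicates, mitosis taken 0.5 h after nocodazole release, G1/S directly after double thymidine block.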

Consider “MLRRGSQALRRFSTGRVYFKNKLKLALIGQSLFGQEVYSHLRKEGHRVVGVFTVPDKDGKADPLALAAEKDGTPVFKLPKWRVKGKTIKEVAEAYRSVGAELNVLPFCTQFIPMDIIDSPKHGSIIYHPSILPRHRGASAINWTLIMGDKKAGFSVFWADDGLDTGPILLQRSCDVEPNDTVDALYNRFLFPEGIKAMVEAVQLIADGKAPRIPQPEEGATYEGIQKKENAEISWDQSAEVLHNWIRGHDKVPGAWTEINGQMVTFYGSTLLNSSVPPGEPLEIKGAKKPGLVTKNGLVLFGNDGKALTVRNLQFEDGKMIPASQYFSTGETSVVELTAEEVKVAETIKVIWAGILSNVPIIEDSTDFFKSGASSMDVARLVEEIRQKCGGLQLQNEDVYMATKFEGFIQKVVRKLRGEDQEVELVVDYISKEVNEIMVKMPYQCFINGQFTDADDGKTYDTINPTDGSTICKVSYASLADVDKAVAAAKDAFENGEWGRMNARERGRLMYRLADLLEENQEELATIEALDSGAVYTLALKTHIGMSVQTFRYFAGWCDKIQGSTIPINQARPNRNLTFTKKEPLGVCAIIIPWNYPLMMLAWKSAACLAAGNTLVLKPAQVTPLTALKFAELSVKAGFPKGVINIIPGSGGIAGQRLSEHPDIRKLGFTGSTPIGKQIMKSCAVSNLKKVSLELGGKSPLIIFNDCELDKAVRMGMGAVFFNKGENCIAAGRLFVEESIHDEFVTRVVEEIKKMKIGDPLDRSTDHGPQNHKAHLEKLLQYCETGVKEGATLVYGGRQVQRPGFFMEPTVFTDVEDYMYLAKEESFGPIMVISKFQNGDIDGVLQRANSTEYGLASGVFTRDINKAMYVSEKLEAGTVFINTYNKTDVAAPFGGVKQSGFGKDLGEEALNEYLKTKTVTLEY [ALDH1L2]”, for which the thermal stability score in data set [1] (setting [5]) was -0.0085; in data set [1] (cell cycle stage: mitosis) it was -0.149. For the same sequence, the melting temperature came out at 51.6 °C in data set [2] (cell cycle stage: G1/S) and 51.2 °C in data set [2] (cell cycle stage: mitosis). Also, the “solubility in G1/S (log2)” value in data set [3] came to 0.0306. Moreover, in data set [4], the “solubility change mitosis (log2)” value is -0.105.

In the case of “MLRSGPASGPSVPTGRAMPSRRVARPPAAPELGALGSPDLSSLSLAVSRSTDELEIIDEYIKENGFGLDGGQPGPGEGLPRLVSRGAASLSTVTLGPVAPPATPPPWGCPLGRLVSPAPGPGPQPHLVITEQPKQRGMRFRYECEGRSAGSILGESSTEASKTLPAIELRDCGGLREVEVTACLVWKDWPHRVHPHSLVGKDCTDGICRVRLRPHVSPRHSFNNLGIQCVRKKEIEAAIERKIQLGIDPYNAGSLKNHQEVDMNVVRICFQASYRDQQGQMRRMDPVLSEPVYDKKSTNTSELRICRINKESGPCTGGEELYLLCDKVQKEDISVVFSRASWEGRADFSQADVHRQIAIVFKTPPYEDLEIVEPVTVNVFLQRLTDGVCSEPLPFTYLPRDHDSYGVDKKRKRGMPDVLGELNSSDPHGIESKRRKKKPAILDHFLPNHGSGPFLPPSALLPDPDFFSGTVSLPGLEPPGGPDLLDDGFAYDPTAPTLFTMLDLLPPAPPHASAVVCSGGAGAVVGETPGPEPLTLDSYQAPGPGDGGTASLVGSNMFPNHYREAAFGGGLLSPGPEAT [RELB]”, the figures for the thermal stability score in data set [1] (setting [5]) and in data set [1] (cell cycle stage: mitosis) were 0.0562 and 0.606, respectively. The sequence also registered a melting temperature in data set [2] (cell cycle stage: mitosis) of 50.1 °C. Besides, in data set [3], the “solubility in G1/S (log2)” value was -0.0253. The “solubility change mitosis (log2)” value in data set [4] was -0.12.

Regarding “MLSRPKPGESEVDLLHFQSQFLAAGAAPAVQLVKKGNRGGGDANSDRPPLQDHRDVVMLDNLPDLPPALVPSPPKRARPSPGHCLPEDEDPEERLRRHDQHITAVLTKIIERDTSSVAVNLPVPSGVAFPAVFLRSRDTQGKSATSGKRSIFAQEIAARRIAEAKGPSVGEVVPNVGPPEGAVTCETPTPRNQGCQLPGSSHSFQGPNLVTGKGLRDQEAEQEAQTIHEENIARLQAMAPEEILQEQQRLLAQLDPSLVAFLRSHSHTQEQTGETASEEQRPGGPSANVTKEEPLMSAFASEPRKRDKLEPEAPALALPVTPQKEWLHMDTVELEKLHWTQDLPPVRRQQTQERMQARFSLQGELLAPDVDLPTHLGLHHHGEEAERAGYSLQELFHLTRSQVSQQRALALHVLAQVISRAQAGEFGDRLAGSVLSLLLDAGFLFLLRFSLDDRVDGVIATAIRALRALLVAPGDEELLDSTFSWYHGALTFPLMPSQEDKEDEDEDEECPAGKAKRKSPEEESRPPPDLARHDVIKGLLATSLLPRLRYVLEVTYPGPAVVLDILAVLIRLARHSLESATRVLECPRLIETIVREFLPTSWSPVGAGPTPSLYKVPCATAMKLLRVLASAGRNIAARLLSSFDLRSRLCRIIAEAPQELALPPEEAEMLSTEALRLWAVAASYGQGGYLYRELYPVLMRALQVVPRELSTHPPQPLSMQRIASLLTLLTQLTLAAGSTPAETISDSAEASLSATPSLVTWTQVSGLQPLVEPCLRQTLKLLSRPEMWRAVGPVPVACLLFLGAYYQAWSQQPSSCPEDWLQDMQRLSEELLLPLLSQPTLGSLWDSLRHCSLLCNPLSCVPALEAPPSLVSLGCSGGCPRLSLAGSASPFPFLTALLSLLNTLAQIHKGLCGQLAAILAAPGLQNYFLQCVAPGAAPHLTPFSAWALRHEYHLQYLALALAQKAAALQPLPATHAALYHGMALALLSRLLPGSEYLTHELLLSCVFRLEFLPERTSGGPEAADFSDQLSLGSSRVPRCGQGTLLAQACQDLPSIRNCYLTHCSPARASLLASQALHRGELQRVPTLLLPMPTEPLLPTDWPFLPLIRLYHRASDTPSGLSPTDTMGTAMRVLQWVLVLESWRPQALWAVPPAARLARLMCVFLVDSELFRESPVQHLVAALLAQLCQPQVLPNLNLDCRLPGLTSFPDLYANFLDHFEAVSFGDHLFGALVLLPLQRRFSVTLRLALFGEHVGALRALSLPLTQLPVSLECYTVPPEDNLALLQLYFRTLVTGALRPRWCPVLYAVAVAHVNSFIFSQDPQSSDEVKAARRSMLQKTWLLADEGLRQHLLHYKLPNSTLPEGFELYSQLPPLRQHYLQRLTSTVLQNGVSET [RPAP1]”, the results for the thermal stability score in data set [1] (setting [5]) and in data set [1] (cell cycle stage: mitosis) were 0.47 and 0.88, respectively. Further, the melting temperature in data set [2] (cell cycle stage: G1/S) came to 52.9 °C; in data set [2] (cell cycle stage: mitosis) it was 51.7 °C. The “solubility in G1/S (log2)” value in data set [3] was -0.1. Besides, the “solubility change mitosis (log2)” value in data set [4] is -0.0998.

On to “MLSVASRSGPFAPVLSATSRGVAGALRPLVQATVPATPEQPVLDLKRPFLSRESLSGQAVRRPLVASVGLNVPASVCYSHTDIKVPDFSEYRRLEVLDSTKSSRESSEARKGFSYLVTGVTTVGVAYAAKNAVTQFVSSMSASADVLALAKIEIKLSDIPEGKNMAFKWRGKPLFVRHRTQKEIEQEAAVELSQLRDPQHDLDRVKKPEWVILIGVCTHLGCVPIANAGDFGGYYCPCHGSHYDASGRIRLGPAPLNLEVPTYEFTSDDMVIVG [UQCRFS1]”, for which the thermal stability score in data set [1] (setting [5]) was -1.93; in data set [1] (cell cycle stage: mitosis), -2.28. Also, the melting temperature in data set [2] (cell cycle stage: G1/S) stood at 55.6 °C; in data set [2] (cell cycle stage: mitosis) it was 55.5 °C. For the same sequence, the “solubility in G1/S (log2)” value in data set [3] came out at 0.119. Besides, the “solubility change mitosis (log2)” value in data set [4] is -0.113.

The values are drawn from the supplement of paper PMC5998384.
